Laboratory results published in patent US20250041437A1 (SUN PHARMA ADVANCED RESEARCH, published 2025).
Positions count from the first letter of the chain named.

T1: recombinant human MUC1-SEA (MUC1 antigen, Acrobiosystems, Cat: MU1-H52H9) (human, UniProt P15941 1039-1158)
T1 construct: Bought protein, captured on an anti-His chip (so His-tagged)
T1 sequence: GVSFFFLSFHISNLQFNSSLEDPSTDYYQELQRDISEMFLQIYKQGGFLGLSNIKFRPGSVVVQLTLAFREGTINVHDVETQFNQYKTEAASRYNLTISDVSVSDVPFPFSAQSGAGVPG

B1: HM2 LM2 variant of humanized anti-MUC1 antibody SP66 (antibody, V domains shown)
VH: EIQLVQSGAEVKKPGSSVKVSCKVTGHSITRGSSWHWMRQAPGQGLEWIGYIHYGGGTSYNPSLKSRITITRDTSTNTAYMELSSLRSEDTAFYFCARYSYDITYRWFFDVWGQGTLVTVSS
VL: DIQMTQSPSTLSASVGDRVTITCRASQNIGTSIHWYQQKPGKAPKLLIKRASESISGVPSRFSGSGSGTEFTLTISSLQPDDFATYYCQQNNNWPLTFGQGTKVEVK
notes: Humanized IgG expressed in CHO cells; only variable domains tied to the variant
B2: humanized IgG1 anti-MUC1-SEA mAb (HM5 LM4) (antibody, V domains shown)
VH: B1 VH with A79F
VL: DIQMTQSPSTLSASVGDRVTITCRASQNIGTSIHWYQQKPGKAPKLLIKYASESISGVPSRFSGSGSGTEFTLTISSLQPDDFATYYCQQNNNWPLTFGQGTKVEIKR
notes: also called Humanized anti-MUC1 SEA IgG1; humanized IgG anti-MUC1-SEA mAb
B3: HM3 LM2 variant of humanized anti-MUC1 antibody SP66 (antibody, V domains shown)
VH: B1 VH with I68A, I70L
VL: B1 VL
notes: as for B1
B4: HM5 LM3 variant of humanized anti-MUC1 antibody SP66 (antibody, V domains shown)
VH: B1 VH with A79F
VL: B1 VL with R50Y
notes: as for B1
B5: HM3 LM3 variant of humanized anti-MUC1 antibody SP66 (antibody, V domains shown)
VH: B1 VH with I68A, I70L
VL: B1 VL with R50Y
notes: as for B1
B6: HM2 LM3 variant of humanized anti-MUC1 antibody SP66 (antibody, V domains shown)
VH: B1 VH
VL: B1 VL with R50Y
notes: as for B1
B7: HM4 LM3 variant of humanized anti-MUC1 antibody SP66 (antibody, V domains shown)
VH: B1 VH with I68A, I70L, A79F
VL: B1 VL with R50Y
notes: as for B1
B8: HM5 LM2 variant of humanized anti-MUC1 antibody SP66 (antibody, V domains shown)
VH: B1 VH with A79F
VL: B1 VL
notes: as for B1
B9: HM4 LM2 variant of humanized anti-MUC1 antibody SP66 (antibody, V domains shown)
VH: B1 VH with I68A, I70L, A79F
VL: B1 VL
notes: as for B1

Legend:
[1] = target: T1, recombinant human MUC1-SEA (MUC1 …); assay: SPR; MUC1 antigen captured on anti-His CM5 chip, antibody as analyte
[2] = target: T1, recombinant human MUC1-SEA (MUC1 …); assay: SPR, single cycle kinetics; MUC1 antigen captured on anti-His CM5 chip

| Binder | Kd [1] | koff [1] | kon [1] | Kd [2] | koff [2] | kon [2] |
| --- | --- | --- | --- | --- | --- | --- |
| B1 | 0.144 nM | 0.000255 s⁻¹ | 1.77e+06 M⁻¹ s⁻¹ | – | – | – |
| B2 | 0.0298 nM | 0.00015 s⁻¹ | 5.02e+06 M⁻¹ s⁻¹ | 0.0397 nM | 0.000281 s⁻¹ | 7.07e+06 M⁻¹ s⁻¹ |
| B3 | 0.186 nM | 0.000492 s⁻¹ | 2.65e+06 M⁻¹ s⁻¹ | – | – | – |
| B4 | 0.05 nM | 0.000198 s⁻¹ | 3.97e+06 M⁻¹ s⁻¹ | – | – | – |
| B5 | 0.0775 nM | 0.00347 s⁻¹ | 4.47e+07 M⁻¹ s⁻¹ | – | – | – |
| B6 | 0.0598 nM | 0.000188 s⁻¹ | 3.14e+06 M⁻¹ s⁻¹ | – | – | – |
| B7 | 0.0826 nM | 0.000238 s⁻¹ | 2.88e+06 M⁻¹ s⁻¹ | – | – | – |
| B8 | 0.0444 nM | 0.000213 s⁻¹ | 4.8e+06 M⁻¹ s⁻¹ | – | – | – |
| B9 | 0.0639 nM | 0.000261 s⁻¹ | 4.08e+06 M⁻¹ s⁻¹ | – | – | – |
